The values below come from the supplement of paper PMC10567573.

Sequences and labels used below:
B1: C10orf62 (parent)
chain: RALEEVEMKLQKNFLTQRENTIAG
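Further: lentivirally expressed fusions sorted by FACS into six bins by GFP to DsRed ratio, PSI derived from sequencing read proportions per bin multiplied by bin number.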

This series covers variants of B1. In words: protein stability index of a GFP-peptide fusion (GPS, HEK-293T) (PSI 1-6); higher = more stable. Conditions: c terminus: a fixed tail appended.
RALEEVEMNLQKNFLTQRENTIAG: the protein stability index was 2.98. Turning to RALEEVEMRLQKNFLTQRENTIAG, the protein stability index came to 2.31. The same measure for RALEEVEMELQKNFLTQRENTIAG: 3.9; for RALEEVEMQLQKNFLTQRENTIAG: 3.13; for RALEEVEMPLQKNFLTQRENTIAG: 3.51.

Turning to RALEEVEMYLQKNFLTQRENTIAG, the protein stability index was 1.67. For the variant RALEEVEMILQKNFLTQRENTIAG, the protein stability index turned out to be 2.08. For the variant RALEEVEMFLQKNFLTQRENTIAG, the protein stability index was 2.24.

Regarding RALEEVEMLLQKNFLTQRENTIAG, the protein stability index was 1.73. Take RALEEVEMTLQKNFLTQRENTIAG: the protein stability index turned out to be 3.4. With RALEEVEMWLQKNFLTQRENTIAG, the protein stability index was determined as 1.4. As for RALEEVEMSLQKNFLTQRENTIAG, the protein stability index was found to be 3.06. For the variant RALEEVEMVLQKNFLTQRENTIAG, the protein stability index came out at 2.55. As for RALEEVEMMLQKNFLTQRENTIAG, the protein stability index is 2.79. Regarding RALEEVEMGLQKNFLTQRENTIAG, the protein stability index came out at 3.75. On to RALEEVEMHLQKNFLTQRENTIAG, for which the protein stability index was 2.93. RALEEVEMKWQKNFLTQRENTIAG: the protein stability index was 2.88. Turning to RALEEVEMKEQKNFLTQRENTIAG, the protein stability index turned out to be 5.17.

Consider RALEEVEMKFQKNFLTQRENTIAG, for which the protein stability index worked out at 3.37. As to RALEEVEMKKQKNFLTQRENTIAG, the protein stability index came to 4.35. In the case of RALEEVEMKCQKNFLTQRENTIAG, the protein stability index came to 3.58. As to RALEEVEMKYQKNFLTQRENTIAG, the protein stability index worked out at 3.67. For RALEEVEMKIQKNFLTQRENTIAG, the protein stability index is 3.5. The same measure for RALEEVEMKPQKNFLTQRENTIAG: 4.4. As for RALEEVEMKQQKNFLTQRENTIAG, the protein stability index was found to be 3.22. Turning to RALEEVEMKSQKNFLTQRENTIAG, the protein stability index was 4.66. On to RALEEVEMKTQKNFLTQRENTIAG, for which the protein stability index is 4.4. Turning to RALEEVEMKDQKNFLTQRENTIAG, the protein stability index was 4.56.

As for RALEEVEMKHQKNFLTQRENTIAG, the protein stability index was 4. With RALEEVEMKAQKNFLTQRENTIAG, the protein stability index came to 4.13. Next, RALEEVEMKRQKNFLTQRENTIAG: 3.4; RALEEVEMKGQKNFLTQRENTIAG: 4.29; RALEEVEMKVQKNFLTQRENTIAG: 4.04. Take RALEEVEMKNQKNFLTQRENTIAG: the protein stability index came to 4.25. For RALEEVEMKMQKNFLTQRENTIAG, the protein stability index stood at 3.75. Next, RALEEVEMKLQKNCLTQRENTIAG: 4.29. RALEEVEMKLQKNALTQRENTIAG: the protein stability index was determined as 4.72. Turning to RALEEVEMKLQNNFLTQRENTIAG, the protein stability index is 4.44. Consider RALEEVEMKLQMNFLTQRENTIAG, for which the protein stability index amounted to 2.86.

As for RALEEVEMKLQVNFLTQRENTIAG, the protein stability index is 2.31. Turning to RALEEVEMKLQFNFLTQRENTIAG, the protein stability index is 2. RALEEVEMKLQDNFLTQRENTIAG: the protein stability index was 4.03. Turning to RALEEVEMKLQRNFLTQRENTIAG, the protein stability index was determined as 3.31. With RALEEVEMKLQENFLTQRENTIAG, the protein stability index turned out to be 4.05.

RALEEVEMKLQINFLTQRENTIAG: the protein stability index was 2.15. Consider RALEEVEMKLQANFLTQRENTIAG, for which the protein stability index was found to be 3.77.

As to RALEEVEMKLQTNFLTQRENTIAG, the protein stability index came to 4.2.

Turning to RALEEVEMKLQLNFLTQRENTIAG, the protein stability index is 2.67. For RALEEVEMKLQPNFLTQRENTIAG, the protein stability index came to 4.14. For RALEEVEMKLQWNFLTQRENTIAG, the protein stability index worked out at 1.94.

Turning to RALEEVEMKLQCNFLTQRENTIAG, the protein stability index amounted to 3.3. Next, RALEEVEMKLQQNFLTQRENTIAG: 3.72; RALEEVEMKLQHNFLTQRENTIAG: 3.43; RALEEVEMKLQYNFLTQRENTIAG: 2.3.

Turning to RALEEVEMKLQGNFLTQRENTIAG, the protein stability index was found to be 3.77. The same measure for RALEEVEMKLQSNFLTQRENTIAG: 2.77; for RALEEVEMKLQKRFLTQRENTIAG: 3.42; for RALEEVEMKLQKYFLTQRENTIAG: 2.62. The same measure for RALEEVEMKLQKLFLTQRENTIAG: 2.86; for RALEEVEMKLQKHFLTQRENTIAG: 2.72; for RALEEVEMKLQKTFLTQRENTIAG: 3.31.

On to RALEEVEMKLQKGFLTQRENTIAG, for which the protein stability index was determined as 3.15. Turning to RALEEVEMKLQKPFLTQRENTIAG, the protein stability index was determined as 3.96. Turning to RALEEVEMKLQKDFLTQRENTIAG, the protein stability index was determined as 3.89. In the case of RALEEVEMKLQKMFLTQRENTIAG, the protein stability index came to 3.02. Next, RALEEVEMKLQKKFLTQRENTIAG: 3.3; RALEEVEMKLQKIFLTQRENTIAG: 1.76. In the case of RALEEVEMKLQKSFLTQRENTIAG, the protein stability index is 3.52. As to RALEEVEMKLQKAFLTQRENTIAG, the protein stability index came to 2.58.

As for RALEEVEMKLQKVFLTQRENTIAG, the protein stability index stood at 3.

RALEEVEMKLQKQFLTQRENTIAG: the protein stability index worked out at 3.4. On to RALEEVEMKLQKFFLTQRENTIAG, for which the protein stability index turned out to be 2.23. Next, RALEEVEMKLQKEFLTQRENTIAG: 3.92; RALEEVEMKLQKCFLTQRENTIAG: 3.23. Consider RALEEVEMKLQKWFLTQRENTIAG, for which the protein stability index was 1.36. On to RALEEVEMKLHKNFLTQRENTIAG, for which the protein stability index worked out at 2.94. Next, RALEEVEMKLFKNFLTQRENTIAG: 2.44. Turning to RALEEVEMKLYKNFLTQRENTIAG, the protein stability index worked out at 2.78.

As for RALEEVEMKLEKNFLTQRENTIAG, the protein stability index is 4.28. With RALEEVEMKLIKNFLTQRENTIAG, the protein stability index stood at 2.13.

Regarding RALEEVEMKLCKNFLTQRENTIAG, the protein stability index turned out to be 3.52. RALEEVEMKLWKNFLTQRENTIAG: the protein stability index came out at 1.98. Regarding RALEEVEMKLPKNFLTQRENTIAG, the protein stability index was 3.9. Next, RALEEVEMKLDKNFLTQRENTIAG: 4.43. RALEEVEMKLSKNFLTQRENTIAG: the protein stability index amounted to 3.48. In the case of RALEEVEMKLTKNFLTQRENTIAG, the protein stability index came out at 3.73. As to RALEEVEMKLVKNFLTQRENTIAG, the protein stability index came out at 2.82.

As to RALEEVEMKLLKNFLTQRENTIAG, the protein stability index was determined as 2.28.

For the variant RALEEVEMKLNKNFLTQRENTIAG, the protein stability index was determined as 3.51. Take RALEEVEMKLMKNFLTQRENTIAG: the protein stability index is 2.64. In the case of RALEEVEMKLAKNFLTQRENTIAG, the protein stability index is 3.31. In the case of RALEEVEMKLKKNFLTQRENTIAG, the protein stability index is 3.31. The same measure for RALEEVEMKLRKNFLTQRENTIAG: 3.71; for RALEEVEMKLGKNFLTQRENTIAG: 3.63.
